Experimental data: publication PMC11344281 (Protein Science : A Publication of the Protein Society, 2024)
Blank lines part the entries; values can stand above or below the binder they belong to.

B2: syntaxin 18 SNARE domain (aa 229–312) (domain or fragment)
chain: EEIQMFEQENQRLIGEMNSLFDEVRQIEGKVVEISRLQEIFTEKVLQQETEIDSIHQLVVGATENIKEGNEDIREAIKNNAGFR
B4: Use1 SNARE domain (aa 174–239) (domain or fragment)
chain: QRHQGLQEKLAEEMLGLARSLKTNTLAAQSVIKKDNQTLSHSLKMADQNLEKLKLESERLEQHAQK

Key:
[1] = biological target: B2; assay: native gel or EMSA
[2] = biological target: synaptobrevin 2 (aa 1–96) (Rattus norvegicus, UniProt P63045 1-96); assay: native gel or EMSA + SEC
[3] = biological target: B4; assay: native gel or EMSA + SEC
[4] = biological target: B2; assay: native gel or EMSA + SEC

Chain of synaptobrevin 2 (aa 1–96) (P63045 1-96): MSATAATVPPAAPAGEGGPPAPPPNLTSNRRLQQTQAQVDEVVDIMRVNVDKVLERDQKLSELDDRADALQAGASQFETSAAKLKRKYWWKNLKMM

Binder: B2
- binding result [2]: binds

Binder: B4
- binding result [4]: binds

Results, then the binder that gave them:

- binding result [1]: binds
B1: U_SNAP (Sec20, aa 133–198; Use1, aa 174–239), chimeric Qbc-SNARE with the SNAP-25 linker (other)
chain: QTSSSITESLMGISRMMSQQVQQSEEAMQTLVSSSRTLLDANEEFKSMSGTIQLGRKLITKYNRREGLSVSPSNKLKSSDAYKKAWGNNQDGVVASQPARVVDEREQMAISGGFIRRVTNDQRHQGLQEKLAEEMLGLARSLKTNTLAAQSVIKKDNQTLSHSLKMADQNLEKLKLESERLEQHAQK

- binding result [3]: binds
- binding result [4]: binds
B3: Sec20 SNARE domain (aa 133–198) (domain or fragment)
chain: QTSSSITESLMGISRMMSQQVQQSEEAMQTLVSSSRTLLDANEEFKSMSGTIQLGRKLITKYNRRE
